For one data set, the target named is T1, TGA3 NID (Arabidopsis thaliana, UniProt Q39234).
T1 sequence (Q39234 160-384): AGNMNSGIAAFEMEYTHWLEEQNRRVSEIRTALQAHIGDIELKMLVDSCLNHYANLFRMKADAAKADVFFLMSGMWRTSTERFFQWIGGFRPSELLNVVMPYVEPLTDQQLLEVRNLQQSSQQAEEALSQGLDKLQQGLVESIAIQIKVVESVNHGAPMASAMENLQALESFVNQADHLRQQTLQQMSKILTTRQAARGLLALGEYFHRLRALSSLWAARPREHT
Kind of data set: X-ray crystal structure. The note with it: co-purified from E. coli expression; crystals at pH 5.0, 20 °C. In kind it is binding.

Data set [1] has as its target T2, Full-length Arabidopsis thaliana NPR1 (NPR1–Strep, insect cells) (Arabidopsis thaliana), P93002.
T2 chain: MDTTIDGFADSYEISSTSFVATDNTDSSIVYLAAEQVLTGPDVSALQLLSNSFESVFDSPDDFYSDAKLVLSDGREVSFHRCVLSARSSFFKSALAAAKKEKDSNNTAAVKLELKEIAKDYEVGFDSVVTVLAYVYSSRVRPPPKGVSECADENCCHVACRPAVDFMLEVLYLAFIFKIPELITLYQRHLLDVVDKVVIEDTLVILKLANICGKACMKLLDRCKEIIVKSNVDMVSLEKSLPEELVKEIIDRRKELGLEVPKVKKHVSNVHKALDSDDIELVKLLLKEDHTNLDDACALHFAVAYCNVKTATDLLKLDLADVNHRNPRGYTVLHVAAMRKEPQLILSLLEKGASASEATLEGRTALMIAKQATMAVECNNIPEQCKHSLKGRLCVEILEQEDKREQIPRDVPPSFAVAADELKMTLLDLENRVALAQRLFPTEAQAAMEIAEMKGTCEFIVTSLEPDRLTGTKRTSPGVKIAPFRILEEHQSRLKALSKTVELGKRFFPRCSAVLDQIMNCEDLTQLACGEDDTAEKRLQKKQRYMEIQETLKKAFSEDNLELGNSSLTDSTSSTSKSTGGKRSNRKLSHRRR
Kind of data set: cross-linking. The note with it: remark: other sources report otherwise.

Data set [2] deals with T3, TGA3 (Arabidopsis thaliana, UniProt Q39234 87-384).
T3 sequence: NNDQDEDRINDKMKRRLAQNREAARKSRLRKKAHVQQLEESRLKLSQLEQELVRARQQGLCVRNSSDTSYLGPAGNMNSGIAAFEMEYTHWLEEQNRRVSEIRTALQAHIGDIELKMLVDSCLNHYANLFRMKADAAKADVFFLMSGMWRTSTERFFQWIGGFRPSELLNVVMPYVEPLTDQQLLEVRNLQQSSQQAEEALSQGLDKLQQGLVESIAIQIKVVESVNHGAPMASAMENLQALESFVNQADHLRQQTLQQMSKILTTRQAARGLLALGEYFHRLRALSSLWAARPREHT
Kind of data set: EMSA. Background: Mobility shift assays separate free from complexed probe on a gel.

For a further data set, the target named is TGA3;NPR1 (Arabidopsis thaliana;Arabidopsis …, UniProt Q39234;P93002 87-384;1-593, |). Kind of data set: EMSA.
Data set [3] addresses T3, TGA3. Kind of data set: EMSA. This is another data set of the same source.
Another data set has as its target NPR1 (Arabidopsis thaliana, UniProt P93002 1-593). Kind of data set: EMSA.
Data set [4] deals with T4, Full-length Arabidopsis NPR1 (NPR1–Strep3, E. coli) (Arabidopsis thaliana, UniProt P93002 1-593).
T4 sequence (looked up): T2 chain
Kind of data set: cryo-EM structure.

Data set [5] deals with the molecule itself. Kind of data set: oxidation with hydrogen peroxide, non-reducing SDS–PAGE.

Numbering of substitutions follows the chain as printed. Names and notes keep the numbering of the source. Read-outs that look alike come from different tables or passages of the source.

For `CCCCCCCCCCCCCCCC(=O)O` [palmitic acid], the “X-ray crystal structure (1.5 Å); LC-ESI/MS of extracted lipid” value on TGA3 NID is “a palmitic acid was found inside the NID”.

B1: Full-length Arabidopsis thaliana NPR1 (NPR1–Strep, insect cells), P93002 1-593 (natural protein)
chain: T2 chain
By stoichiometry N is commonly meant a count of units in the complex or per binding partner. Take B1: the stoichiometry N in data set [1] came to 2.

B2: LS5-/LS7- (dsDNA)
DNA 1: GGGCTAAAAAAAAAGTAAAATAGAAAAAAAAAGAGGG
DNA 2: CCCTCTTTTTTTTTCTATTTTACTTTTTTTTTAGCCC
For B2, the binding result with TGA3 [2] is “no binding”.

B3: LS5/LS7 (dsDNA)
DNA 1: GGGCTATGACGTAAGTAAAATAGTGACGTAGAGAGGG
DNA 2: CCCTCTCTACGTCACTATTTTACTTACGTCATAGCCC
With B3, the binding result is recorded as “binds” in the data set with TGA3;NPR1, “binds” with TGA3 [3] and “no binding” with NPR1.

B4: Arabidopsis TGA3 (Asn87–Thr384) (domain or fragment, Arabidopsis thaliana, UniProt Q39234 87-384, looked up)
chain: T3 sequence
Take B4: the binding result in data set [4] is “binds”.

B5: NPR1 BTB/BHB (Thr39–Lys262) npr1(C82A) (domain or fragment, Arabidopsis thaliana, UniProt P93002 39-262, looked up)
chain: TGPDVSALQLLSNSFESVFDSPDDFYSDAKLVLSDGREVSFHRAVLSARSSFFKSALAAAKKEKDSNNTAAVKLELKEIAKDYEVGFDSVVTVLAYVYSSRVRPPPKGVSECADENCCHVACRPAVDFMLEVLYLAFIFKIPELITLYQRHLLDVVDKVVIEDTLVILKLANICGKACMKLLDRCKEIIVKSNVDMVSLEKSLPEELVKEIIDRRKELGLEVPK
Turning to B5, in data set [5], the binding result was “binds”.

B6: NPR1 BTB/BHB (Thr39–Lys262) npr1(C212V/C216A/C223L) (domain or fragment, Arabidopsis thaliana, UniProt P93002 39-262, looked up)
chain: B5 chain with A44C, C174V, C178A, C185L
In the case of B6, the binding result in data set [5] is reported as “binds”.

B7: WT NPR1 BTB/BHB (Thr39–Lys262) (domain or fragment, Arabidopsis thaliana, UniProt P93002 39-262, looked up)
chain: B5 chain with A44C
With B7, the binding result in data set [5] was “binds”.

The values above are taken from publication PMC9346951 (Nature, 2022).
